For this assay, the target named is N-ethylmaleimide-sensitive factor (NSF), pRSET-A fusion protein (mouse, UniProt P46460 1-744). As to the kind of experiment: SPR. A general note: SPR reads the build-up and loss of mass on a sensor chip optically.
N-ethylmaleimide-sensitive factor (NSF), pRSET-A fusion protein, sequence (P46460 whole entry, the tested form may be a part): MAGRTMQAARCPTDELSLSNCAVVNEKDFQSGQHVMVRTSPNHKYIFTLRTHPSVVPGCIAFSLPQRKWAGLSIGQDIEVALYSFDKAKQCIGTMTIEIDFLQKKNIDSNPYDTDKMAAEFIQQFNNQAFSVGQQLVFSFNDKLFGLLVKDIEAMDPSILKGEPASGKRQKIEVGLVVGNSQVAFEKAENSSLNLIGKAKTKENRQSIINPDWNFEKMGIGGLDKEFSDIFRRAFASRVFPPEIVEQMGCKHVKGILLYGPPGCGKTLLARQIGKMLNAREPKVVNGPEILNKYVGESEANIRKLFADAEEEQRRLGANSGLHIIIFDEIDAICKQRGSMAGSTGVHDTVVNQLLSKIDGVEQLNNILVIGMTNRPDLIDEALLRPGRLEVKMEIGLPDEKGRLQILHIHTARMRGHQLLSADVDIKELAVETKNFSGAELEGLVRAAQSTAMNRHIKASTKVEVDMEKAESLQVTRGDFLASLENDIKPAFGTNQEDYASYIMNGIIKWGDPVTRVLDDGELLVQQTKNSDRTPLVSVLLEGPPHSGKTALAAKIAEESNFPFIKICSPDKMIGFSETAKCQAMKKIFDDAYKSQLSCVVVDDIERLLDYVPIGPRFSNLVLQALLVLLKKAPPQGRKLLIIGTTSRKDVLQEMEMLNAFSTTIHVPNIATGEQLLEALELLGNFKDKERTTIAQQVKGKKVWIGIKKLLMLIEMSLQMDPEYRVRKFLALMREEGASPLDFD

B1: rat organ of Corti dopamine D1A carboxy terminus, pRSET-A fusion protein (domain or fragment, UniProt P18901 338-425, looked up)
chain: QKAFSTLLGCYRLCPTTNNAIETVSINNNGAVVFSSHHEPRGSISKDCNLVYLIPHAVGSSEDLKKEEAGGIAKPLEKLSPALSVILD
For orientation: Kd means the constant that tells how readily two partners part at equilibrium. High values mean lower affinity, low ones higher affinity. For orientation: koff means the first-order rate constant of dissociation. Low readings indicate a long-lived complex, high ones a short-lived complex. As usually defined, the kon is the second-order rate constant of association. The low end stands for slow association, the high end for fast association. B1 yielded a Kd of 12.1 nM, an off-rate (koff) of 0.00274 s⁻¹ and an association rate constant (kon) of 227000 M⁻¹ s⁻¹.
